This is an account of results in paper PMC4653306, “Metagenomics of an Alkaline Hot Spring in Galicia (Spain): Microbial Diversity Analysis and Screening for Novel Lipolytic Enzymes” (Frontiers in Microbiology, 2015).

Substrate in the data set: CCCCCCCCCCCC(=O)Oc1ccc([N+](=O)[O-])cc1
Briefly: spectrophotometric p-nitrophenol release (A400), initial rates, Michaelis-Menten fit. It is filed as biochemical, uncultured organism. The note with it: extracellular medium of recombinant yeast, Tris/HCl pH 7.5, CaCl2, 40 °C, pNP12 0.002-2.5 mM. From the text: spectrophotometric p-nitrophenol release (A400), initial rates, Michaelis-Menten fit on LOB4Est

B1: LOB4Est (uncultured organism) (protein)
chain: SRPRTAVHDRVLELVQQQIAAGQQLGVQVCAYQNGEKIVDIVAGVMGPDDPRPVQPDTLFNSFSTTKGVAATALHILAEQGKLEYEQPVARYWPAFAANGKERVTVAQAMSHQAGLHAMPTPSTIETLCDWEGGLNWVASGVPAWEPGTATGYHAITYAWVVGGIVYGATGRHIKDVIREEIAIPLGVADELFVGIPEGVEDRLATLAVPAPGEGMALPIPPDHDFFKAMPPSLGGHVYNDMRVRRACLPSANGHFSARALAKMYAALAGGGVVDGVRLVSPERIALMQRILTADMDRVLMLPLRKGVGFMMGGPVNGVSGVFGPRETAFGHSGAGGSTAFCDPETGLAVAVTINQMQMTLQAEGPTYAICQLIREELGCA
notes: yeast alpha-factor secretion signal fusion (removed on secretion), N-terminal FLAG-tag kept; secreted by Saccharomyces cerevisiae BJ3505 (YEpFLAG-1), assayed as unpurified extracellular medium
Turning to B1, the Michaelis-Menten constant (Km) (commonly the substrate concentration at which the rate is half of its maximum) stood at 298 µM and the maximum rate (Vmax) (in general, the top rate of the reaction or transport when substrate is in excess) turned out to be 264 µM/min.
